First the molecules themselves.
B1: Compound No. 8 in the Table, BzlSO2-Nle-Ala-His-DThi-Lys-Trp-NH2 (peptide)
peptide: Benzenesulfonyl-[Nle]AH[d2Thi]KW-NH2
SMILES: CCCC[C@H](NS(=O)(=O)c1ccccc1)C(=O)N[C@@H](C)C(=O)N[C@@H](Cc1c[nH]cn1)C(=O)N[C@H](Cc1cccs1)C(=O)N[C@@H](CCCCN)C(=O)N[C@@H](Cc1c[nH]c2ccccc12)C(N)=O
B2: Compound No. 12 in the Table, Ac-Nle-Ala-His-L2,Nap-Lys-Trp-NH2 (peptide)
peptide: Ac-[Nle]AH[2Nal]KW-NH2
SMILES: CCCC[C@H](NC(C)=O)C(=O)N[C@@H](C)C(=O)N[C@@H](Cc1c[nH]cn1)C(=O)N[C@@H](Cc1ccc2ccccc2c1)C(=O)N[C@@H](CCCCN)C(=O)N[C@@H](Cc1c[nH]c2ccccc12)C(N)=O
B3: Compound No. 7 in the Table, BzlSO2-Nle-Ala-His-DpNO2Phe-Lys-Trp-NH2 (peptide)
peptide: Benzenesulfonyl-[Nle]AH[dPhe(4-NO2)]KW-NH2
SMILES: CCCC[C@H](NS(=O)(=O)c1ccccc1)C(=O)N[C@@H](C)C(=O)N[C@@H](Cc1c[nH]cn1)C(=O)N[C@H](Cc1ccc([N+](=O)[O-])cc1)C(=O)N[C@@H](CCCCN)C(=O)N[C@@H](Cc1c[nH]c2ccccc12)C(N)=O
B4: Compound No. 9 in the Table, Ac-Nle-Ala-His-DThi-Lys-Trp-NH2 (peptide)
peptide: Ac-[Nle]AH[d2Thi]KW-NH2
SMILES: CCCC[C@H](NC(C)=O)C(=O)N[C@@H](C)C(=O)N[C@@H](Cc1c[nH]cn1)C(=O)N[C@H](Cc1cccs1)C(=O)N[C@@H](CCCCN)C(=O)N[C@@H](Cc1c[nH]c2ccccc12)C(N)=O

[ ]: non-standard residue; d: D form. The star is where a group is joined. dPhe(4-NO2) = N[C@H](Cc1ccc([N+](=O)[O-])cc1)C(=O)O; 2Nal = N[C@@H](Cc1ccc2ccccc2c1)C(=O)O; Benzenesulfonyl = O=S(=O)(c1ccccc1)*; d2Thi = N[C@H](Cc1cccs1)C(=O)O; PyrProp = pyridinepropionyl; Nle = CCCC[C@H](N)C(=O)O

Sequence of melanocortin-1 receptor (MC-1r) on murine melanocytes (line S91 Cloudman) (Q01727 whole entry): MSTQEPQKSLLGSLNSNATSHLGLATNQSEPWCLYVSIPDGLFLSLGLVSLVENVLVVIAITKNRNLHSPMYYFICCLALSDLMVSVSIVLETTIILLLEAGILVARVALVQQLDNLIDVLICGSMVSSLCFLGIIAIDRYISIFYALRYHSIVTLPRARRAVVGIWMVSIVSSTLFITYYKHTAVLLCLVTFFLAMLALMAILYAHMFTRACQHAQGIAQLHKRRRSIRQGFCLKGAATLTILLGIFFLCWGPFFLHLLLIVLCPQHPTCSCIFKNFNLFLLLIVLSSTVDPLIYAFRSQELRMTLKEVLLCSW

The experiment has as its target melanocortin-1 receptor (MC-1r) on murine melanocytes (line S91 Cloudman) (murine, UniProt Q01727 1-315). Briefly: cell-based or functional assay.
As for B1, the “cAMP production (as % of α-MSH)” value is 65 % of α-MSH.
In the case of B2, the “cAMP production (as % of α-MSH)” value was 50 % of α-MSH.
The same measure for PyrProp-[Nle]AH[dPhe(4-NO2)]KW-NH2 [Compound No. 10 in the Table, PyrProp-Nle-Ala-His-DpNO2Phe-Lys-Trp-NH2]: 115 % of α-MSH.
To Ac-SYSMEHFRWGKPV-NH2 belongs 100 % of α-MSH.
The same measure for B3: 100 % of α-MSH; for B4: 75 % of α-MSH.

The values above are taken from US7268108 (INSTITUT EUROPEAN DE BIOLOGIE CELLULAIRE, dated 2007).
